Measured values published in US12134610B2, “Somatostatin subtype-2 receptor (SST2R) targeted therapeutics and uses thereof” (priority 2022, dated 2024).
Where two headings read alike, the source gives them in different places.

Legend:
[1] = H524 tumor biodistribution model: tumor and plasma levels of SMDC and MMAE by LC/MS-MS; type: in vivo, female Athymic nude mice; details: H524 tumor bearing nude mice
Protocol: In this example, 5 million H524 (Small Cell Lung Cancer) cells in 1:1 Matrigel: cold Media (RPMI1640) were injected into the subcutaneous (SQ) flank of female Athymic nude mice. Tumor volumes and body weights were measured twice a week. The tumors were allowed to grow until they reached 250-500 mm^3 in size before animals were randomized into groups (n=3/time point). Animals were injected intravenously with a SMDC of the present invention at a single dose of 500 nmol/kg. […] BLQ: Below Limit of Quantitation.

SST2 = biological target: T1, SST2 (Homo sapiens, UniProt P30874); assay: PathHunter CHO-K1 SST2 internalization assay; type: cell-based; details: PathHunter CHO-K1 SST2, 90 min; read-out: Internalization EC50
T1 construct: host or cells: PathHunter CHO-K1 SST2 cells
Method in brief: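 IC50 comes from four-parameter curves on background-corrected duplicates of Beta-Glo luminescence, read after 60 min at room temperature in the dark. Before that, CHO-K1 SST2 internalization cells (48 h post-seeding) received SMDC as eleven threefold dilutions, 10 uM highest final, for 90 min at 37 C.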

[2] = system: NCI-H524 (ATCC) human small cell lung cancer cells; type: cell-based
Method in brief: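 CellTiter-Glo luminescence after a 2 h SMDC pulse (top dose 1 uM, 2-fold dilutions, 11 points), medium wash, then 70 h recovery. Cells were seeded at 5,000/well and dosed 24 h later. % inhibition vs control gave IC50 via four-parameter fit.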

[3] = biological target: T2, human somatostatin receptor subtype 2 (Homo sapiens, UniProt P30874); assay: Functional cAMP assay for SSTR2 agonists (HTRF) in CHO-K1 cells; type: cell-based; details: CHO-K1 cells stably expressing human SST2, 20 min; read-out: hSST2 cAMP Avg EC50
T2 construct: expressed in transfected cells
Method in brief: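 Agonism scored as loss of NKH477 (1.6 μM)-driven cAMP, with IBMX present, after 20 min, 37° C. exposure of stably transfected CHO-K1 cells to compound dilutions (typically 0-10,000 nM). Lysates read by time-resolved FRET; cAMP interpolated from standard curve and EC50 derived.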

[4] = MMAE level 4 h after 500 nmol/kg IV of the conjugate
[5] = MMAE level 24 h after 500 nmol/kg IV of the conjugate
[6] = MMAE level 72 h after 500 nmol/kg IV of the conjugate
[7] = MMAE level 168 h after 500 nmol/kg IV of the conjugate
[8] = MMAE level 240 h after 500 nmol/kg IV of the conjugate
[9] = female, Athymic nude, mouse, plasma, 4 h after 500 nmol/kg IV, read-out: Conjugate Plasma
[10] = female, Athymic nude, mouse, plasma, 24 h after 500 nmol/kg IV, read-out: Conjugate Plasma
[11] = female, Athymic nude, mouse, 4 h after 500 nmol/kg IV, read-out: Conjugate Tumor
[12] = female, Athymic nude, mouse, 24 h after 500 nmol/kg IV, read-out: Conjugate Tumor
[13] = MMAE level 1 h after 500 nmol/kg IV of the conjugate

T1 sequence (P30874 whole entry): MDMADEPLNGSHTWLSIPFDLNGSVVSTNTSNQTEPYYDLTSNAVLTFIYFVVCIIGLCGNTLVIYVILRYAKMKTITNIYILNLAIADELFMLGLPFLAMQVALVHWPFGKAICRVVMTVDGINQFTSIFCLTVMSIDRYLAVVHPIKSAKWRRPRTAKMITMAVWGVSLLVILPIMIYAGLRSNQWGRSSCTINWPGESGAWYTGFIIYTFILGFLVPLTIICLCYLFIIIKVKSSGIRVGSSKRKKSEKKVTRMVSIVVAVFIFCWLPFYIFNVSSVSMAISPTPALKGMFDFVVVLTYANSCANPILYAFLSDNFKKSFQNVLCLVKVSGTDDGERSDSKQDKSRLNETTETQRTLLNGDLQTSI
T2 sequence (P30874 whole entry): as above

SMILES | Conjugate Plasma (nM) ([1]; 72 h after 500 nmol/kg IV) | Conjugate Plasma (nM) ([1]; 168 h after 500 nmol/kg IV) | Conjugate Tumor (nM) ([1]; 168 h after 500 nmol/kg IV) | MMAE Plasma [1, 4] [nM] | MMAE Tumor [1, 4] [nM] | MMAE Plasma (nM) [1, 5] | MMAE Tumor [1, 5] [nM] | MMAE Plasma (nM) [1, 6] | MMAE Tumor [1, 6] [nM] | MMAE Plasma (nM) [1, 7] | MMAE Tumor [1, 7] [nM] | level at time molar at 4 h [1, 9] [nM] | level at time molar at 24 h [1, 10] [nM] | level at time molar at 4 h [1, 11] [nM] | level at time molar at 24 h [1, 12] [nM] | EC50 (SST2) [nM] | EC50 ([2]; 2 h) [nM] | EC50 [3] [nM] | Conjugate Tumor (nM) ([1]; 72 h after 500 nmol/kg IV) | MMAE Plasma [1, 13] [nM] | other results
CC[C@H](C)[C@@H]([C@@H](CC(=O)N1CCC[C@H]1[C@H](OC)[C@@H](C)C(=O)N[C@H](C)[C@@H](O)c1ccccc1)OC)N(C)C(=O)[C@@H](NC(=O)[C@H](C(C)C)N(C)C(=O)OCc1ccc(NC(=O)[C@H](CCCNC(N)=O)NC(=O)[C@@H](NC(=O)[C@@H](CS(=O)(=O)O)NC(=O)CCOCCC(=O)NCCNc2ncc(-c3cc(C)cc(F)c3)c(N3CCC(N)CC3)c2-c2nc3ccc(Cl)cc3[nH]2)C(C)C)cc1C(=O)NCCN)C(C)C [Compound 107] | BLQ | BLQ | BLQ | 2.26 | 123 | BLQ | 242 | BLQ | 141 | BLQ | 90.1 | 83.1 | 0.441 | 94.2 | 9.26 | 2.2 | 4 | 0.15 | – | – | Conjugate Plasma (nM) ([1]; 240 h after 500 nmol/kg IV): BLQ; Conjugate Tumor (nM) ([1]; 240 h after 500 nmol/kg IV): BLQ; MMAE Plasma (nM) [1, 8]: BLQ; MMAE Tumor [1, 8]: 25.2 nM; level at time molar at 72 h ([1]; female, Athymic nude, mouse, 72 h after 500 nmol/kg IV, read-out: Conjugate Tumor): 1.64 nM
CC[C@H](C)[C@@H]([C@@H](CC(=O)N1CCC[C@H]1[C@H](OC)[C@@H](C)C(=O)N[C@H](C)[C@@H](O)c1ccccc1)OC)N(C)C(=O)[C@@H](NC(=O)[C@H](C(C)C)N(C)C(=O)OCc1ccc(NC(=O)[C@H](CCCNC(N)=O)NC(=O)[C@@H](NC(=O)CCOCCC(=O)NCCNc2ncc(-c3cc(C)cc(F)c3)c(N3CCC(N)CC3)c2-c2nc3ccc(Cl)cc3[nH]2)C(C)C)c(O[C@@H]2O[C@H](C(=O)O)[C@@H](O)[C@H](O)[C@H]2O)c1)C(C)C [Compound 61] | BLQ | BLQ | BLQ | 0.754 | 75.0 | – | 320 | BLQ | 267 | BLQ | 97.8 | 1100 | 56.5 | 181 | 37 | 12.7 | 33.2 | 0.11 | BLQ | – | –
CC[C@H](C)[C@@H]([C@@H](CC(=O)N1CCC[C@H]1[C@H](OC)[C@@H](C)C(=O)N[C@H](C)[C@@H](O)c1ccccc1)OC)N(C)C(=O)[C@@H](NC(=O)[C@H](C(C)C)N(C)C(=O)OCc1ccc(NC(=O)[C@H](C)NC(=O)[C@@H](NC(=O)CCOCCC(=O)NCCNc2ncc(-c3cc(C)cc(F)c3)c(N3CCC(N)CC3)c2-c2nc3ccc(Cl)cc3[nH]2)C(C)C)c(O[C@@H]2O[C@H](C(=O)O)[C@@H](O)[C@H](O)[C@H]2O)c1)C(C)C [Compound 68] | – | – | – | 1.94 | 197 | – | 299 | BLQ | 231 | – | – | – | – | – | – | – | – | – | BLQ | 8.82 | level at time molar at 24 h ([1]; 1 h after 500 nmol/kg IV, read-out: Conjugate Plasma): 1388 nM; level at time molar at 24 h ([1]; 1 h after 500 nmol/kg IV, read-out: Conjugate Tumor): 212 nM; level at time molar at 24 h ([1]; 4 h after 500 nmol/kg IV, read-out: Conjugate Plasma): 446 nM; level at time molar at 24 h ([1]; 4 h after 500 nmol/kg IV, read-out: Conjugate Tumor): 91.3 nM; level at time molar at 24 h ([1]; 24 h after 500 nmol/kg IV, read-out: Conjugate Plasma): 36.9 nM; level at time molar at 24 h ([1]; 24 h after 500 nmol/kg IV, read-out: Conjugate Tumor): 15.5 nM; level at time molar at 24 h ([1]; 72 h after 500 nmol/kg IV, read-out: Conjugate Plasma): 0.68 nM; MMAE Tumor [1, 13]: 17.5 nM; MMAE Plasma [1, 5]: 0.416 nM; EC50 ([2]; 2 h treatment, washout, additional 70 h, read-out: H524 EC50): 11.2 nM
CC[C@H](C)[C@@H]([C@@H](CC(=O)N1CCC[C@H]1[C@H](OC)[C@@H](C)C(=O)N[C@H](C)[C@@H](O)c1ccccc1)OC)N(C)C(=O)[C@@H](NC(=O)[C@H](C(C)C)N(C)C(=O)OCc1ccc(NC(=O)[C@H](CCCNC(N)=O)NC(=O)[C@@H](NC(=O)[C@H](CCC(=O)O)NC(=O)CCOCCC(=O)NCCNc2ncc(-c3cc(C)cc(F)c3)c(N3CCC(N)CC3)c2-c2nc3ccc(Cl)cc3[nH]2)C(C)C)cc1C(=O)NCCN)C(C)C [Compound 49] | BLQ | – | – | 1.36 | 65.7 | BLQ | 83.5 | BLQ | 62.7 | – | – | 41.6 | 0.783 | 46.5 | – | 5.5 | 17.3 | 0.14 | BLQ | 9.2 | Conjugate Tumor (nM) ([1]; 24 h after 500 nmol/kg IV): BLQ; MMAE Tumor [1, 13]: 38 nM; level at time molar at 1 h ([1]; female, Athymic nude, mouse, plasma, 1 h after 500 nmol/kg IV, read-out: Conjugate Plasma): 354 nM; level at time molar at 1 h ([1]; female, Athymic nude, mouse, 1 h after 500 nmol/kg IV, read-out: Conjugate Tumor): 88.1 nM
